{"source": "patent US9447149B2", "about": "“Methods and compositions for the rapid synthesis of radiometal-labeled probes” (University of Southern California, priority 2012, dated 2016)", "key": {"integrin αvβ3": {"target": "T1, integrin αvβ3 (Homo sapiens, UniProt P05106+P06756)", "T1 construct": "host or cells: U87MG human glioblastoma cells (whole cells in suspension)", "assay": "Integrin αvβ3 receptor binding assay (competitive displacement of 125I-echistatin on U87MG cells)", "conditions": "125I-echistatin radioligand, 3 h, room temperature"}, "[1]": {"assay": "Probe stability in PBS by radio-HPLC", "assay_type": "physicochemical", "conditions": "for parent [64Cu]1 remaining (radiochemical purity): PBS, room temperature", "description": "The in vitro stability of [^64Cu]1 was evaluated in PBS buffer by radio-HPLC. […] This high stability is attributed to Sar cage in the conjugate. In addition, it is known that the U87MG cell line over-expresses integrin αvβ3 receptor [13].\nAll chemicals and solvents were obtained from Aldrich (Milwaukee, Wis., USA) and used without further purification. 1,8-Diamino-3,6,10,13,16,19-hexaazabicyclo[6.6.6]-eicosine was purchased from Areva Med (Dallas, Tex.). ^125I-Echistatin was obtained from Perkin-Elmer (Waltham, Mass.). ^1H and ^13C nuclear magnetic resonance (NMR) were recorded on a Varian 400 MHz spectrometer. Mass spectrum was obtained on a ThermoElectron Finnigan LTQ mass spectrometer equipped with an electrospray ionization (ESI) source (Thermo Scientific, USA). HPLC analyses were carried out on an analytical reversed-phase high performance liquid chromatography (HPLC) system equipped with a dual UV absorbance detector (Waters 2487) using a phenomenex C18 RP (250×4.6 mm 5 micron). The flow was 1 mL/min, with the mobile phase starting from 100% solvent A (0.1% TFA in water), followed by a gradient mobile phase to 20% solvent A and 80% solvent B (0.1% TFA in acetonitrile) at 30 min. The UV absorbance was monitored at 214 nm and the identification of the peptides was confirmed based on the UV spectrum using a PDA detector. The radioactivity was detected by a model of Ludlum 2200 single-channel radiation detector. The stability study was performed under the same HPLC condition. MicroPET scans were performed on a microPET R4 rodent model scanner (Siemens Medical Solutions USA, Inc., Knoxyille, Tenn.). The scanner has a computer-controlled bed and 10.8-cm transaxial and 8-cm axial fields of view (FOVs). It has no septa and operates exclusively in the 3-dimensional (3D) list mode. Animals were placed near the center of the FOV of the scanner.\nThe stability of [^64Cu]1 was tested in PBS. In brief, 3.7 MBq of the [^64Cu]1 was pipetted into 0.5 mL of the PBS and incubated in PBS at room temperature. At various time points (1, 6, and 24 h), an aliquot of the solution was taken and the radiochemical purity was determined by reverse-phase HPLC under identical conditions. The parent [^64Cu]1 was determined to be >99%, 98%, and 96% at 1, 6, and 24 h, respectively."}, "[2]": {"assay": "Partition coefficient (1-octanol/PBS)", "assay_type": "physicochemical", "conditions": "1-octanol / PBS pH 7.4, triplicate", "description": "The partition coefficient value was expressed as log P. Log P of [^64Cu]1 was determined by measuring the distribution of radioactivity in 1-octanol and PBS. Approximately 111 kBq of [^64Cu]1 in 2 μL of PBS (pH=7.4) was added to a vial containing 0.5 mL 1-octanol and 0.5 mL of PBS (pH=7.4). After vigorously vortexing for 10 min, the vial was centrifuged at 12,500 rpm for 5 min to ensure the complete separation of layers. 200 μL of each layer was pipetted into test tubes, and radioactivity was measured using a gamma counter (Perkin-Elmer Packard Cobra). The mean value was calculated from triplicate experiments. The log P value of [^64Cu]1 was determined to be […]."}, "in vivo": {"assay": "in vivo", "parameters": "species or system mice", "conditions": "female, athymic nude, mouse, iv, 7.4 MBq, total radioactivity", "description": "(§1) The in vivo tumor-targeting efficacy of [^64Cu]1 was evaluated in nude mice bearing U87MG human glioma xenograft tumors (n=3) by static microPET scans at 2, 4, and 20 h after tail-vain injection of [^64Cu]1. U87MG tumors were clearly visualized at all time points examined. […] At 2 h post injection, the tumor/liver, tumor/kidneys, and tumor/muscle ratios reached 2.82±0.76, 2.22±1.49, and 11.79±2.65, respectively. Consequently, the high tumor-to-nontumor ratios provided excellent contrast for PET imaging. Blocking experiment was conducted to confirm the integrin αvβ3 specificity of [^64Cu]1.\n(§2) All animal studies were approved by the University of Southern California Institutional Animal Care and Use Committee. Female athymic nude mice (about 4-6 weeks old, with a body weight of 20-25 g) were obtained from Harlan Laboratories (Livermore, Calif.). The U87MG human glioma xenograft model was generated by subcutaneous injection of 5×10^6 U87MG human glioma cells into the front flank of female athymic nude mice. The tumors were allowed to grow 3-5 weeks until 200-500 mm^3 in volume. Tumor growth was followed by caliper measurements of the perpendicular dimensions.\n(§3) MicroPET scans and imaging analysis were performed using a rodent scanner (microPET R4 scanner; Siemens Medical Solutions). About 7.4 MBq of [^64Cu]1 was intravenously injected into each mouse (n=3) under isoflurane anesthesia. Five-minute static scans were acquired at 2, 4, and 20 h pi. The images were reconstructed by a two-dimensional ordered-subsets expectation maximum (OSEM) algorithm. For each microPET scan, regions of interest were drawn over the tumor, normal tissue, and major organs on the decay-corrected whole-body coronal images. The radioactivity concentration (accumulation) within the tumor, muscle, liver, and kidneys were obtained from the mean value within the multiple regions of interest and then converted to % ID/g."}, "[3]": {"system": "U87MG human glioma xenograft tumors", "assay": "in vivo", "parameters": "species or system mice", "conditions": "mouse, 10 mg/kg", "description": "as §1, §2, §3"}}}
{"smiles": "N=C(N)NCCC[C@@H]1NC(=O)[C@H](CCCCNC(=O)C2O[C@H](CNC(=O)Cn3nnc4c3-c3ccccc3CN(C(=O)CCNC(=O)CCOCCOCCOCCOCCOCCC(=O)N[C@]35CNCCNC[C@](N)(CNCCNC3)CNCCNC5)c3ccccc3-4)[C@H](O)C(O)[C@@H]2O)NC(=O)[C@@H](Cc2ccccc2)NC(=O)[C@H](CC(=O)O)NC(=O)CNC1=O", "note": "(stereo partly shown) [compound 1]", "values": [{"measurement": "IC50", "setting": "integrin αvβ3", "value": "170 ± 3", "unit": "nM"}]}
{"smiles": "N=C(N)NCCC[C@@H]1NC(=O)[C@H](CCCCNC(=O)[C@H]2O[C@@H](CNC(=O)Cn3nnc4c3-c3ccccc3CN(C(=O)CCNC(=O)CCOCCOCCOCCOCCOCCC(=O)NC35CNCCNCC(N)(CNCCNC3)CNCCNC5)c3ccccc3-4)[C@H](O)[C@@H](O)[C@H]2O)NC(=O)[C@@H](Cc2ccccc2)NC(=O)[C@H](CC(=O)O)NC(=O)CNC1=O", "note": "[[^64Cu]1, metal not drawn]", "values": [{"measurement": "release of 64Cu from the conjugate", "setting": "[1]; PBS buffer, over a period of 24 h, radio-HPLC", "value": "no release of ^64Cu from the conjugate"}, {"measurement": "parent [64Cu]1 remaining (radiochemical purity)", "setting": "[1]; 1 h", "value": "> 99", "unit": "%"}, {"measurement": "parent [64Cu]1 remaining (radiochemical purity)", "setting": "[1]; 6 h", "value": 98, "unit": "%"}, {"measurement": "parent [64Cu]1 remaining (radiochemical purity)", "setting": "[1]; 24 h", "value": 96, "unit": "%"}, {"measurement": "logP", "setting": "[2]", "value": "4.94 ± 0.1"}, {"measurement": "tissue uptake at 2 h", "setting": "in vivo", "value": "4.96 ± 0.65", "unit": "%ID/g"}, {"measurement": "tissue uptake at 4 h", "setting": "in vivo", "value": "4.11 ± 0.48", "unit": "%ID/g"}, {"measurement": "tissue uptake at 20 h", "setting": "in vivo", "value": "2.41 ± 0.31", "unit": "%ID/g"}, {"measurement": "tissue to tissue ratio at 2 h", "setting": "in vivo; tumor/kidneys ratio", "value": "2.22 ± 1.49"}, {"measurement": "tissue to tissue ratio at 2 h", "setting": "in vivo; tumor/liver ratio", "value": "2.82 ± 0.76"}, {"measurement": "tissue to tissue ratio at 2 h", "setting": "in vivo; tumor/muscle ratio", "value": "11.8 ± 2.65"}, {"measurement": "uptake values of normal organs (liver, kidneys, muscle) with blocking", "setting": "[3]", "value": "lower than those without coinjection of c(RGDyK)"}]}
